This test deals with Pep1/Pep2. In words: ELISA, coated peptide. (In general: ELISA stands for enzyme-linked immunosorbent assay.)

B1: antibody 616 (antibody, V domains shown)
VH: QIHLVQSGPELKKPGETVRISCKASGYTFTTYGMSWVKQAPGKALKWMGWINTYSGVPTYADDFKGRFAFSLETSASTAYLQINNLKNEDTATYFCTREGSTMVTRYYFDYWGQGTTLTVSS
VL: DIVMTQAAPSVPVTPGESVSISCRSSKSLLHSNGNTYLYWFLQRPGQSPQLLIYRMSNLASGVPDRFSGSGSGTAFTLRISRVEAEDVGVYHCMQHLESPYTFGGGTTLEIK
In turn, B1 came in with an ELISA O.D. of 0.069 O.D.

B2: antibody 623 (antibody, V domains shown)
VH: QIQLVQSGPELKKPGETVKISCKASGYTFTTYGMSWVKQAPGKGLKWMGWINTYSGVPTYADDFKGRFAFSLETSASTAYLQINNLKNEDTATFFCAREGSTMVTRYYFDYWGQGTTLTVSS
VL: DIVMTQAAPSVPVTPGESVSISCRSSKSLLHSNGNTYLYWFLQRPGQSPQLLIYRMSNLASGVPDRFSGSGSGTAFTLRISRVEAEDVGVYYCMQHLEYPSTFGGGTKLEIK
Regarding B2, the ELISA O.D. came out at 0.098 O.D.

B3: antibody 619 (antibody, V domains shown)
VH: QIQLVQSGPELKKPGETVKISCKASGYTFTTYGMSWVKQAPGKGLKWMGWINTYSGVPTYADDFKGRFAFSLETSASTAYLQINNLKNEDTATYFCAREGSTMVTRYYFDYWGQGTTLTVSS
VL: DIVMTQAAPSVPVTPGESVSISCRSSKSLLHSNGNTYLYWFLQRPGQSPQVLIYRMSNLASGVPDRFSGSGSGTAFTLRISRVEAEDVGVYYCMQHLESPYTFGGGTKLEIK
Regarding B3, the ELISA O.D. is 0.064 O.D.

B4: antibody 617 (antibody, V domains shown)
VH: QVQLQLPGAELVKPGASVKVSCKASAYTFTSYWMHWVKQRPGQGLEWIGRIHPSDSDTNYNQNFKGKATLTVDKSSNTAYMQLSSLTSEDSAVYYCATGFSFWGQGTLVTVSA
VL: DIVMTQSHKFMSTSVGDRVSITCKASQDVSTTVAWYQQKPGQSPKLLIYSASYRYTGVPDRFTGSGSGTDFTFTISSVQAEDLAVYYCQQHYSTRPTFGGGTKLEIK
B4 registered an ELISA O.D. of 0.102 O.D.

For the origin of these results see patent US20190100588A1.
